Source: US20230382979A1 (ADAPTIVE BIOTECHNOLOGIES, published 2023)

Experiments:
[1] = target: SARS-CoV-2 spike protein, WA1/2020, borne on lentiviral pseudovirus (SARS-CoV-2, WA01/2020 strain, UniProt P0DTC2 14-1273); test: cell-based or functional assay
[2] = target: SARS-CoV (2003) spike protein borne on lentiviral pseudovirus (SARS-CoV (2003), UniProt P59594 14-1255); test: cell-based or functional assay
[3] = target: T1, MERS-COV (S1+S2); test: dose-response ELISA on coated spike antigen
T1 chain: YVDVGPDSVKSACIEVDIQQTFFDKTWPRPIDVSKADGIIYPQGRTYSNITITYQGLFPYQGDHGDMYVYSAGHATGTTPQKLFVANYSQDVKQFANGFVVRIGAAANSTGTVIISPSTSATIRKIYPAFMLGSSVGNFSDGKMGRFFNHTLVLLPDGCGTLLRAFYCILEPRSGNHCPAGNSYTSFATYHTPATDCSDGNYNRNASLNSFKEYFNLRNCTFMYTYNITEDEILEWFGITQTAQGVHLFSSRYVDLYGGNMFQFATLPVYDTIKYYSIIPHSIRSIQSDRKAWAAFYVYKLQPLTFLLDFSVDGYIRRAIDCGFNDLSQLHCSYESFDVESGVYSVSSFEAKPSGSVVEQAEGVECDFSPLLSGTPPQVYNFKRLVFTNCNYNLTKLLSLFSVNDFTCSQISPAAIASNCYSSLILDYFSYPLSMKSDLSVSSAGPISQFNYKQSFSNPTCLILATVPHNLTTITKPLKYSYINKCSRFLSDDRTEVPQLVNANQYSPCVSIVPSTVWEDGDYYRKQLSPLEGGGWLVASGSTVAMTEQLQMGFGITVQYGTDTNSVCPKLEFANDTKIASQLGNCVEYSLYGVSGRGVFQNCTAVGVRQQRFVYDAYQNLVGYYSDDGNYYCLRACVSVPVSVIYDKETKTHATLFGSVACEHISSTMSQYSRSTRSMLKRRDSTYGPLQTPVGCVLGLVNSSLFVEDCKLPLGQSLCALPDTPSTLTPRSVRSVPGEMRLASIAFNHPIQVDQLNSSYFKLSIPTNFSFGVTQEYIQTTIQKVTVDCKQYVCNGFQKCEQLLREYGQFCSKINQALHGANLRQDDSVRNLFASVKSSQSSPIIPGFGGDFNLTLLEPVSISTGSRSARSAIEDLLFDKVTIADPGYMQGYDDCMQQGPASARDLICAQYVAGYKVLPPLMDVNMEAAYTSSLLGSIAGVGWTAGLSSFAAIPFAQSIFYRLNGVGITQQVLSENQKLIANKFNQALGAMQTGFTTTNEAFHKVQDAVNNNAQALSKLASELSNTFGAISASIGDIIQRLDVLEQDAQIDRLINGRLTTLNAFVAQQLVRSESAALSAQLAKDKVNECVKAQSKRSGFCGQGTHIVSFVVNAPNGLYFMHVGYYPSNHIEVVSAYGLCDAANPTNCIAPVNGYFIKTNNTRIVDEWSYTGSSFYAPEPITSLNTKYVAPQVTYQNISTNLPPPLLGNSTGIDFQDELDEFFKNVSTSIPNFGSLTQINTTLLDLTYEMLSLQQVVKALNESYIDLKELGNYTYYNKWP

[4] = target: T2, MERS-COV (S2); test: dose-response ELISA on coated spike antigen
T2 chain: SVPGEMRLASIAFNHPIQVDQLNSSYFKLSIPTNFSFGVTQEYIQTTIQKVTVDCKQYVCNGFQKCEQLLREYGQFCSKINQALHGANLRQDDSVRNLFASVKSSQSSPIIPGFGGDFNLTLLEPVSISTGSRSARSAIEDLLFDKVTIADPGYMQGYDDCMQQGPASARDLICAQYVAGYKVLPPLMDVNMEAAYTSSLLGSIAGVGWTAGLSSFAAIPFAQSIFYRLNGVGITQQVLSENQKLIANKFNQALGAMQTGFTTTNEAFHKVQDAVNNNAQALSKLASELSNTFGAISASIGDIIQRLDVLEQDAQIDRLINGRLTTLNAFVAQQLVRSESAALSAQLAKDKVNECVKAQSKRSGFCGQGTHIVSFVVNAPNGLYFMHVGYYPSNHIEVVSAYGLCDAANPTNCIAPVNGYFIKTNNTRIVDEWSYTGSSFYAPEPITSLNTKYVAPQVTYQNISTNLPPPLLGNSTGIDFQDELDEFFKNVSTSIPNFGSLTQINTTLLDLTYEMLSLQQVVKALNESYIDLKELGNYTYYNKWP

[5] = target: T3, SARS-CoV-2 spike (S) protein trimer, WA01/2020 strain (SARS-CoV-2, WA01/2020 strain, UniProt P0DTC2 16-1213); test: dose-response ELISA on coated spike antigen
[6] = target: T4, S1 subunit of the SARS-CoV-2 spike protein, WA01/2020 strain (SARS-CoV-2, WA01/2020 strain, UniProt P0DTC2 16-685); test: ELISA screening, antibody concentration not given
[7] = target: T5, S2 subunit of the SARS-CoV-2 spike protein, WA01/2020 strain (SARS-CoV-2, WA01/2020 strain, UniProt P0DTC2 686-1213); test: ELISA screening, antibody concentration not given
[8] = target: T3, SARS-CoV-2 spike (S) protein trimer, …; test: ELISA screening, antibody concentration not given
[9] = target: T6, SARS-CoV-2 nucleocapsid (N) protein (SARS-CoV-2, UniProt P0DTC9 1-419); test: ELISA screening, antibody concentration not given
[10] = target: T3, SARS-CoV-2 spike (S) protein trimer, …
[11] = target: T4, S1 subunit of the SARS-CoV-2 spike …; test: dose-response ELISA
[12] = target: T3, SARS-CoV-2 spike (S) protein trimer, …; test: dose-response ELISA on coated antigen
[13] = target: T5, S2 subunit of the SARS-CoV-2 spike …; test: ELISA, antibody at 0.1 ug/mL
[14] = target: T6, SARS-CoV-2 nucleocapsid (N) protein; test: ELISA, antibody at 0.1 ug/mL
[15] = target: T4, S1 subunit of the SARS-CoV-2 spike …
[16] = target: T6, SARS-CoV-2 nucleocapsid (N) protein; test: ELISA, antibody at 0.1 ug/mL; remark: listed apart in the source
[17] = target: T4, S1 subunit of the SARS-CoV-2 spike …; test: dose-response ELISA on coated antigen
[18] = target: T5, S2 subunit of the SARS-CoV-2 spike …; test: dose-response ELISA on coated spike antigen

B1: antibody 1439 (antibody, V domains shown)
VH: QVQLQESGPGLVKPSETLSLTCTVSGDSISTYYWSWIRQPPGKGLEWIGYIHYSGSTNYNPSLKSRVAVSVDTSKNQFSLKLSSVTAADTAVYYCARGGGVFGVVINFDYWGQGILVTVSS
VL: NFMLTQPYSVSESPGKTVTISCTRSSGSIASNYVQWYQQRPGSAPTTVIYEDNQRPSGVPDRFSGSIDSSSNSASLTISGLKTEDEADYYCQSRDSSNPVVFGGGTKLTVL
For B1, which “Pseudo Neut, WA1/2020 IC50 (pM)” value [1] is on record?
The value was 30200 pM.

And the “Pseudo Neut, SARS-CoV 2003 IC50” value [2]?
The value was 29 nM.

Does B1 bind [3]?
Result: no binding (tested: 10000 ng/ml)

Does B1 bind [4]?
Result: no binding (tested: 10000 ng/ml)

What about the “EC50 (read off the curve)” value [5] of the same binder?
Its value is roughly 0.1 µg/mL.

B2: antibody 1915 (antibody, V domains shown)
VH: QVQLVESGGGVVQPGRSLRLSCAASGFTFSSYAMHWVRQAPGKGLEWVAVISYDGSNKYYADSVKGRFTISRDNSKNTLYLQMDSLRAQDTAVYYCATPRDMFSSGWSSPFDYWGQGTLVTVSS
VL: DIQMTQSPSSLSASVGDRVTITCQASQDISIYLTWYQQKPGKAPKLLIYGASNLEVEVPSRFSGSGSGTEFTLTISSLQPEDFATYFCQHSDDLPVTFGGGTKVEVK
What does the source list for B2?
binding result [6]: no binding (tested: not printed); binding result [7]: no binding (tested: not printed); binding result [8]: no binding (tested: not printed); binding result [9]: no binding (tested: not printed)

B3: antibody 2432 (antibody, V domains shown)
VH: QVQLVQSGAEVKKPGSSVKVSCKASGDTFSSYAISWVRQAPGQGLEWLGGIIPIFGSADYAQKFQGRVTITADEFTSTAYMELSSLRSEDTAVYFCAREKYGDYGEGPLYNFDYWGQGTLVTVSS
VL: not shown
What does the source list for B3?
Kd [10]: 0.243 nM; binding result [11]: no binding; EC50 [12]: 0.024 nM

B4: antibody 1959 (antibody, V domains shown)
VH: QVQLVQSGTEVKKPGSSVRVSCQASGDTFTSHAIIWIRQAPGQGLEYLGRIIPVLDITNAAQRFLGRLTLTADKSTTTAYMELSSLRSEDTAVYYCARAPFGLIVMYDHWGQGTLVTVTA
VL: EIVLTQSPGTLSLSPGERATLSCRASQSVSGNFLAWYQQKPGQAPRLLIHETSKRATGIPDRVSGGGSGTDFTLTISRLEPEDFAVYHCQQYGTTAVTFGQGTRLDMK
Does B4 bind [6]?
Result: no binding (tested: not printed)

Does B4 bind [7]?
Result: no binding (tested: not printed)

Does B4 bind [8]?
Result: no binding (tested: not printed)

Does B4 bind [9]?
Result: no binding (tested: not printed)

B5: antibody 2606 (antibody, V domains shown)
VH: EVQLVESGGGLVKPGGSLRLSCAASGFTFSSYSMNWVRQAPGKGLEWVSSITSSSGYMYYADSVKGRFTISRDNAKNSLYLQLNSLRAEDTAVYYCAKDSAFDLWEVRSYYYVMDVWGQGTTVTVSS
VL: not shown
What does the source list for B5?
Kd [10]: 0.00787 nM; binding result [11]: no binding; EC50 [12]: 0.057 nM

B6: antibody 1589 (antibody, V domains shown)
VH: EVQLVESGGGLIQVGGSLRLSCAASGLTVTSNYMNWVRQGPGKGLEWVSLIYSGGTTYYADSVKGRFTISRDDSKNTLYLQMNSLRAEDTAVYYCARPIVGARSGMDVWGQGTAVTVSS
VL: DIQMTQSPSSLSASVGDRVTITCQASQDINKYLNWYQQKPGKAPKLLIYDASNLETGVPSRFSGSGSGTDFTFTISSLQPEDLATYYCHQFDNLPGTFGGGTKVEIK
Which results are given for B6?
Pseudo Neut, WA1/2020 IC50 (pM) [1]: 1170 pM; binding result [13]: no binding (tested: 0.1 ug/mL); binding result [14]: no binding (tested: 0.1 ug/mL); binding result [3]: no binding (tested: 10000 ng/ml); binding result [4]: no binding (tested: 10000 ng/ml)

B7: antibody 2793 (antibody, V domains shown)
VH: QVQLVQSGAEVKKPGASVKVSCKVSGFTLPELSIHWVRQAPGKGLEWMGGFDPEDAKTIYAQKFQGRVTMTEDTSTDIAYMELNSLRSDDTAVYYCATGSPFGVVGNWLDPWGQGTLVTVSS
VL: QSALTQPASVSGSPGQSITISCTGTSSDVGDFSYVSWYQQHPGKAPKLMIYEVTKRPSGVSNRFSGSKSGNTASLTISGLQTEDEADYYCTSYTSSRLVLFGGGTKLTVL
Which results are given for B7?
Kd [15]: 0.398 nM; binding result [16]: no binding (tested: 0.1 ug/mL); EC50 [17]: 0.113 nM; EC50 [12]: 0.068 nM; binding result [3]: no binding (tested: 10000 ng/ml); binding result [4]: no binding (tested: 10000 ng/ml); binding result [18]: no binding (tested: 10000 ng/ml)
